This data set is described as follows: Standard protocol for determination of kcat and KM (continuous spectrophotometric assay, Acetyl CoA hydrolysis at 235 nm). The class given is biochemical. The conditions noted are these: purified protein, about 23° C., 0.2 mM acetyl CoA; for Kcat: 20 mM HEPES pH 6.8, 10% ethylene glycol; for Km: pH 6.8, glyphosate 0.125 to 10 mM. On the procedure:
KM was calculated from the initial reaction rates obtained from concentrations of glyphosate ranging from 0.125 to 10 mM, using the Lineweaver-Burke transformation of the Michaelis-Menten equation. kcat/KM was determined by dividing the value determined for kcat by the value determined for KM.
Using this methodology, kinetic parameters for a number of GAT polypeptides exemplified herein were determined. For example, the kcat, KM and kcat/KM for the GAT polypeptide corresponding to SEQ ID NO:445 have been determined to be 322 min^−1, 0.5 mM and 660 mM^−1 min^−1, respectively, using the assay conditions described above. The kcat, KM and kcat/KM for the GAT polypeptide corresponding to SEQ ID NO:457 have been determined to be 118 min^−1, 0.1 mM and 1184 mM^−1 min^−1, respectively, using the assay conditions described above. The kcat, KM and kcat/KM for the GAT polypeptide corresponding to SEQ ID NO:300 have been determined to be 296 min^−1, 0.65 mM and 456 mM^−1 min^−1, respectively, using the assay conditions described above. One of skill in the art can use these numbers to confirm that a GAT activity assay is generating kinetic parameters for a GAT suitable for comparison with the values given herein. For example, the conditions used to compare the activity of GATs should yield the same kinetic constants for SEQ ID NO: 300, 445 and 457 (within normal experimental variance) as those reported herein, when the conditions are used to compare a test GAT with the GAT polypeptides exemplified herein. Kinetic parameters for a number of GAT polypeptide variants were determined according to this methodology and are provided in Table 3.

From patent publication US8008547B2, “Glyphosate-N-acetyltransferase (GAT) genes” (E.I. duPont de Nemours, priority 2000, dated 2011) come the findings set out here.

Broadly, the Km is the substrate concentration at which the rate is half of its maximum.

B1: SEQ ID NO: 300: GAT polypeptide (protein)
chain: MIEVKPINAEDTYEIRHRILRPNQPLEACMYETDSLGGTFHLGGYYRGKLISIASFNQAEHPELEGQKQYQLRGMATLEGYREQKAGSTLIRHAEELLRKKGADLLWCNARTSASGYYKKLGFSEQGEVYDTPPVGPHILMYKKLT
modifications: 13_6D10
notes: GAT polypeptide
For the molecule B1, the Kcat was 4.942 s⁻¹ and the Michaelis-Menten constant (Km) is 650 µM. Also, under “listed as SEQ ID NO:300”, the Kcat amounted to 4.93 s⁻¹.

B2: SEQ ID NO: 360: GAT polypeptide (protein)
chain: MIEVKPINAEDTYEIRHRILRPNQPLEACMYETDLLGGAFHLGGYYRGKLISIASFHPAEHSELEGQKQYQLRGMATLEGYREQKAGSTLIRHAEELLRKKGADLLWCNARISASGYYEKLGFSEQGEVYDIPPIGPHILMYKKLT
modifications: 3B_12D10
notes: GAT polypeptide
For the molecule B2, the Kcat amounted to 0.09 s⁻¹ and the Km was determined as 900 µM.

B3: SEQ ID NO: 358: GAT polypeptide (protein)
chain: MIEVKPINAEDTYEIRHRILRPNQPLEACMYETDLLGGTFHLGGYYRGKLISIASFHQAEHSELEGQKQYQLRGMATLEGYREQKAGSTLIRHAEELLRKKGADLLWCNARTSASGYYKKLGFSEQGGVYDIPPIGPHILMYKKLT
modifications: 3B_10G7
notes: GAT polypeptide
With B3, the Kcat is 0.327 s⁻¹ and the Km amounted to 1000 µM.

B4: SEQ ID NO: 357: GAT polypeptide (protein)
chain: MIEVRPINAEDTYEIRHRILRPNQPLEACMYETDLLGGTFHLGGYYRGKLISIASFHQAEHSELEGQKQYQLRGMATLEGYREQKAGSTLIRHAEELLRKKGADLLWCNARTSASGYYKKLGFSEQGEAYDIPPIGPHILMYKKLT
modifications: 3B_10C4
notes: GAT polypeptide
As to B4, the Kcat was 0.413 s⁻¹ and the Km was found to be 1600 µM.

B5: SEQ ID NO: 267: GAT polypeptide (protein)
chain: MIEVKPINAEDTYEIRHRILRPNQPLEACKYETDLLRGAFHLGGYYRGKLVSIASFHQAEHPELEGQKQYQLRGMATLEGYREQKAGSTLIRHAEALLRKKGADLLWCNARTSASGYYKKLGFSEQGEVYDTPPAGPHILMYKKLT
modifications: 14_2F11
notes: GAT polypeptide
B5: the Kcat was determined as 2.282 s⁻¹ and the Km turned out to be 1700 µM.

B6: SEQ ID NO: 363: GAT polypeptide (protein)
chain: MIEVKPINAEDTYEIRHRILRPNQPLEACMYETDLLGGTFHLGGYYRGKLISIASFHQAEHSELEGQKQYQLRGMATLEGYRGQKAGSTLIRHAEELLRKKGADLLWCNARTSASGYYEKLGFSEQGEVYDIPPIGPHILMYKKLT
modifications: 3C_12H10
notes: GAT polypeptide
For B6, the Kcat came to 0.152 s⁻¹ and the Km was found to be 1200 µM.

B7: SEQ ID NO: 366: GAT polypeptide (protein)
chain: MIEVKPINAEDTYEIRHRILRPNQPLEACKYETDLLGGTFHLGGYYRGKLISIASFHQAEHSELEGQKQYQLRGMATLEEYREQKAGSTLIRHAEELLRKKGADLLWCNARTSASGYYKKLGFSEQGEVYDIPPIGPHILMYKKLT
modifications: 4A_1C2
notes: GAT polypeptide
On to B7, for which the Kcat was determined as 0.34 s⁻¹ and the Km came out at 1200 µM.

B8: SEQ ID NO: 367: GAT polypeptide (protein)
chain: MIEVKPINAEDTYEIRHRILRPNQPLEACKYETDLLGGTFHLGGYYRGKLISIASFHQAEHPELEGQKQYQLRGMATLEEYREQKAGSTLIRHAEELLRKKGADLLWCNARISASGYYEKLGFSEQGEVYDIPPIGPHILMYKKLT
modifications: 4B_13E1
notes: GAT polypeptide
In the case of B8, the Kcat was determined as 0.62 s⁻¹ and the Km was found to be 2000 µM.

B9: SEQ ID NO: 359: GAT polypeptide (protein)
chain: MIEVKPINAEDTYEIRHRILRPNQPLEACMYETDLLGGTFHLGGYYRGKLISIASFHQAEHSELEGQKQYQLRGMATLEGYREQKAGSTLIRHAEELLRKKGADLLWCNARTSASGYYKKLGFSEQGEVYDIPPIGPHILMYKKLT
modifications: 3B_12B1
notes: GAT polypeptide
With B9, the Kcat turned out to be 0.38 s⁻¹ and the Km stood at 1200 µM.

B10: SEQ ID NO: 362: GAT polypeptide (protein)
chain: MIEVKPINAEDTYEIRHRILRPNQPLEACMYETDLLGGTFHLGGYYRGKLISIASFHQAEHSELEGQKQYQLRGMATLEGYREQKAGSTLIRHAEELLRKKGADLLWCNARISASGYYKKLGFSEQGGVYDIPPVGPHILMYKKLT
modifications: 3C_10H3
notes: GAT polypeptide
With B10, the Kcat stood at 0.565 s⁻¹ and the Km worked out at 1100 µM.

B11: SEQ ID NO: 368: GAT polypeptide (protein)
chain: MIEVKPINAEDTYEIRHRILRPNQPLEACMYETDLLGGTFHLGGYYRGKLISIASFHQAEHSELEGQKQYQLRGMATLEGYREQKAGSTLIRHAEELLRKKGADLLWCNARTSASGYYKKLGFSEQGGVYDIPPIGPYILMYKKLT
modifications: 4B_13G10
notes: GAT polypeptide
On to B11, for which the Kcat came out at 0.582 s⁻¹ and the Km was 7600 µM.

B12: SEQ ID NO: 365: GAT polypeptide (protein)
chain: MIEVKPINAEDTYEIRHRILRPNQPLEACMYETDLLGGTFHLGGYYRGKLISIASFHQAEHPELEGQKQYQLRGMATLEGYREQKAGSTLIRHAEELLRKKGADLLWCNARTSASGYYEKLGFSEQGEVYDIPPIGPHILMYKKLT
modifications: 4A_1B11
notes: GAT polypeptide
Consider B12, for which the Kcat was determined as 0.387 s⁻¹ and the Km is 1600 µM.

B13: SEQ ID NO: 361: GAT polypeptide (protein)
chain: MIEVKPINAEDTYEIRHRILRPNQPLEACMYETDLLGGTFHLGGYYRGKLISIASFHQAEHSELEGQKQYQLRGMATLEGYREQKAGSTLIRHAEELLRKKGADLLWCNARTSASGYYEKLGFSKQGEVYDIPPIGPHILMYKKLT
modifications: 3B_2E5
notes: GAT polypeptide
In the case of B13, the Kcat came to 0.273 s⁻¹ and the Km was determined as 1300 µM.

B14: SEQ ID NO: 364: GAT polypeptide (protein)
chain: MIEVKPINAEDTYEIRHRILRPNQPLEACMYETDLLGGTFHLGGYYQDRLISIASFHQAEHSELEGQKQYQLRGMATLEGYREQKAGSTLIRYAEELLRKKGADLLWCNARISASGYYEKLGFSEQGEVYDIPPIGPHILMYKKLT
modifications: 3C_9H8
notes: GAT polypeptide
As to B14, the Kcat stood at 0.195 s⁻¹ and the Michaelis-Menten constant (Km) amounted to 1000 µM.

B15: SEQ ID NO: 445: GAT polypeptide (protein)
chain: MLEVKPINAEDTYELRHRILRPNQPIEACMYESDLLRGAFHLGGYYRGKLISIASFHQAEHSELQGQKQYQLRGMATLEGYREQKAGSSLIKHAEEILRKRGADLLWCNARTSASGYYKKLGFSEQGEIFETPPVGPHILMYKRIT
modifications: 0_5D3
notes: GAT polypeptide
B15: the Kcat was determined as 5.37 s⁻¹ and the Km amounted to 500 µM.

B16: SEQ ID NO: 457: GAT polypeptide (protein)
chain: MLEVKPINAEDTYELRHKILRPNQPLEVCMYETDLLRGAFHLGGFYRGKLISIASFHQAEHSELQGQKQYQLRGMATLEGYREQKAGSSLIKHAEEILRKRGADLLWCNARTSASGYYKKLGFSEQGEVFDTPPVGPHILMYKRIT
modifications: 10_4H4
notes: GAT polypeptide
Regarding B16, the Kcat is 1.9727 s⁻¹ and the Km turned out to be 100 µM. For the setting “listed as SEQ ID NO:457”, this molecule displayed a Kcat of 1.97 s⁻¹.
